Measured values: US20250215104A1 (WALDEN BIOSCIENCES, published 2025)

Experiments:
cynomolgus suPAR = biological target: T1, cynomolgus suPAR (cynomolgus, UniProt Q9GK78 23-303, limits assumed); test: BLI (Octet) off-rate screen of scFv clones
T1 construct: Target antigen of the off-rate screen; also called cynomolgus uPAR; cynoPLAUR-His

[1] = biological target: T2, human soluble urokinase plasminogen activator receptor (hsuPAR) (human, UniProt Q03405 23-303, limits assumed); test: BLI (Octet) off-rate screen of scFv clones
T2 construct: Target antigen of the off-rate screen; also called human suPAR; rhuPAR-His
T2 sequence (Q03405 23-303 limits assumed): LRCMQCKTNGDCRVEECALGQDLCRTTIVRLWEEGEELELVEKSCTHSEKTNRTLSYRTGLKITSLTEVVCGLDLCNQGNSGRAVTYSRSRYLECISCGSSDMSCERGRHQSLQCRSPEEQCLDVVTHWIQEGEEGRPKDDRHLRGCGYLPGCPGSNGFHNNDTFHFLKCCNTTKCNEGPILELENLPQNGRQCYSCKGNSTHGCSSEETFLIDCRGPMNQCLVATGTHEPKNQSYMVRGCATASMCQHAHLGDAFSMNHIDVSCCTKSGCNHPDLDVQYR

T1 sequence (Q9GK78 23-303 limits assumed): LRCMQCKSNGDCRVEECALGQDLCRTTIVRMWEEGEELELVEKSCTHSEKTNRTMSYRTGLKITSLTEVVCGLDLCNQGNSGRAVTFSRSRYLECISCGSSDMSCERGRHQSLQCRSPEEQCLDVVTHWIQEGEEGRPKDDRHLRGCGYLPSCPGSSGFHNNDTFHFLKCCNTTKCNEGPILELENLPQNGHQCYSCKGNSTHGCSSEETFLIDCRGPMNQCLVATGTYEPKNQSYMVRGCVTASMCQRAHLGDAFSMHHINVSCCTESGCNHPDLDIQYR

koff (cynomolgus suPAR) | koff [1] | Binder
0.000319 s⁻¹ | 0.00199 s⁻¹ | suPAR_DB03_A03 (scFv, V domains shown, screened as scFv) VH: QVQLVQSGAEVKKPGASVKVSCKASGYTFTGYYMHWVRQAPGQGLEWMGWIDHENGSTIYDQKFQGRVTMTRDTSTSTVYMELSSLRSEDTAVYYCAVGYDVDWFVYWGQGTLVTVSS VL: DIQMTQSPSSLSASVGDRVTITCSARSSVSYMYWYQQKPGKAPKLLIYRTSNLASGVPSRFSGSGSGTDFTLTISSLQPEDFATYYCQQYHSYPPTFGGGTKVEIK
0.000126 s⁻¹ | 0.00536 s⁻¹ | suPAR_DB03_B05 (scFv, V domains shown, screened as scFv) VH: QVQLVQSGAEVKKPGASVKVSCKASGYTFTSYYMHWVRQAPGQGLEWMGWIDPENGNTIYDQKFQGRVTMTRDTSTSTVYMELSSLRSEDTAVYYCARGYDIDWFVYWGQGTLVTVSS VL: DIQMTQSPSSLSASVGDRVTITCSARQSVSYMYWYQQKPGKAPKLLIYRTSNLASGVPSRFSGSGSGTDFTLTISSLQPEDFATYYCQQYHSYPPTFGGGTKVEIK
0.000138 s⁻¹ | 0.004 s⁻¹ | suPAR_DB03_B10 (scFv, V domains shown, screened as scFv) VH: QVQLVQSGAEVKKPGASVKVSCKASGYTFTGYYMHWVRQAPGQGLEWMGWIDHENGNTIYDQKFQGRVTMTRDTSTSTVYMELSSLRSEDTAVYYCARGTDVDWFVYWGQGTLVTVSS VL: DIQMTQSPSSLSASVGDRVTITCSASSSISYMYWYQQKPGKAPKLLIYRTSNLASGVPSRFSGSGSGTDFTLTISSLQPEDFATYYCQQYHSYPPTFGGGTKVEIK
0.000343 s⁻¹ | 0.00297 s⁻¹ | suPAR_DB03_B01 (scFv, V domains shown, screened as scFv) VH: QVQLVQSGAEVKKPGASVKVSCKASGNTFTGHYMQWVRQAPGQGLEWMGWIDHENGNTSYAQKFQGRVTMTRDTSTSTVYMELSSLRSEDTAVYYCARGYDVDWFVYWGQGTLVTVSS VL: DIQMTQSPSSLSASVGDRVTITCSARSSVSYMYWYQQKPGKAPKLLIYRTSNLASGVPSRFSGSGSGTDFTLTISSLQPEDFATYYCQQYHSYPPTFGGGTKVEIK
0.000226 s⁻¹ | 0.00133 s⁻¹ | suPAR_DB03_B08 (scFv, V domains shown, screened as scFv) VH: QVQLVQSGAEVKKPGASVKVSCKASGYAFTGYYMHWVRQAPGQGLEWMGWIDHENGNTIYDQKFQGRVTMTRDTSTSTVYMELSSLRSEDTAVYYCARGYDVDWFVYWGQGTLVTVSS VL: DIQMTQSPSSLSASVGDRVTITCRARQSVSYMYWYQQKPGKAPKLLIYRTSNLASGVPSRFSGSGSGTDFTLTISSLQPEDFATYYCQQYHSYPPTFGGGTKVEIK
0.00108 s⁻¹ | 0.00464 s⁻¹ | suPAR_DB03_C03 (scFv, V domains shown, screened as scFv) VH: QVQLVQSGAEVKKPGASVKVSCKASGYTFTGYYMHWVRQAPGQGLEWMGWIDHENGSTSYDQKFQGRVTMTRDTSTSTVYMELSSLRSEDTAVYYCASGYDVDWFVYWGQGTLVTVSS VL: DIQMTQSPSSLSASVGDRVTITCSARSSVSYMYWYQQKPGKAPKLLIYGASNLQSGVPSRFSGSGSGTDFTLTISSLQPEDFATYYCQQYHSYPPTFGGGTKVEIK
0.000366 s⁻¹ | 0.00534 s⁻¹ | suPAR_DB03_C02 (scFv, V domains shown, screened as scFv) VH: QVQLVQSGAEVKKPGASVKVSCKASGYSFTNYYIHWVRQAPGQGLEWMGWIDHENGNTIYDQKFQGRVTMTRDTSTSTVYMELSSLRSEDTAVYYCARGNDVDWFVYWGQGTLVTVSS VL: DIQMTQSPSSLSASVGDRVTITCSARSSVSYMYWYQQKPGKAPKLLIYRTSNLASGVPSRFSGSGSGTDFTLTISSLQPEDFATYYCQQYHSYPPTFGGGTKVEIK
6.32e-07 s⁻¹ | 0.00302 s⁻¹ | suPAR_DB03_A06 (scFv, V domains shown, screened as scFv) VH: QVQLVQSGAEVKKPGASVKVSCKASGFNITDYYIHWVRQAPGQGLEWMGWIDPENGSTIYAQKFQGRVTMTRDTSTSTVYMELSSLRSEDTAVYYCARGYDVDWFVYWGQGTLVTVSS VL: DIQMTQSPSSLSASVGDRVTITCSARQSISYMYWYQQKPGKAPKLLIYRTSNLASGVPSRFSGSGSGTDFTLTISSLQPEDFATYYCQQYHSYPPTFGGGTKVEIK
0.000165 s⁻¹ | 0.00366 s⁻¹ | suPAR_DB03_C01 (scFv, V domains shown, screened as scFv) VH: QVQLVQSGAEVKKPGASVKVSCKASGSTSTDHYVHWVRQAPGQGLEWMGWIDHEGGSTIYAQKFQGRVTMTRDTSTSTVYMELSSLRSEDTAVYYCARGYDVDWFVYWGQGTLVTVSS VL: DIQMTQSPSSLSASVGDRVTITCSARSSVSYMYWYQQKPGKAPKLLIYRTSNLASGVPSRFSGSGSGTDFTLTISSLQPEDFATYYCQQYHSYPPTFGGGTKVEIK
1.08e-05 s⁻¹ | 0.00352 s⁻¹ | suPAR_DB03_B06 (scFv, V domains shown, screened as scFv) VH: QVQLVQSGAEVKKPGASVKVSCKASGYNITDYYIHWVRQAPGQGLEWMGWIDPENGSTIYDQKFQGRVTMTRDTSTSTVYMELSSLRSEDTAVYYCARGYDVDWFVYWGQGTLVTVSS VL: DIQMTQSPSSLSASVGDRVTITCSARSSVSYMYWYQQKPGKAPKLLIYRTSNLASGVPSRFSGSGSGTDFTLTISSLQPEDFATYYCQQYHSYPPTFGGGTKVEIK
0.000685 s⁻¹ | 0.000838 s⁻¹ | suPAR_DB03_A10 (scFv, V domains shown, screened as scFv) VH: QVQLVQSGAEVKKPGASVKVSCKASGYTFSNYYMHWVRQAPGQGLEWMGWIDHENGSTIYAQKFQGRVTMTRDTSTSTVYMELSSLRSEDTAVYYCARGYDVDWFVYWGQGTLVTVSS VL: DIQMTQSPSSLSASVGDRVTITCSARSSVSYMYWYQQKPGKAPKLLIYRTSNLASGVPSRFSGSGSGTDFTLTISSLQPEDFATYYCQQYHSYPPTFGGGTKVEIK
4.37e-07 s⁻¹ | 0.00301 s⁻¹ | suPAR_DB03_C04 (scFv, V domains shown, screened as scFv) VH: QVQLVQSGAEVKKPGASVKVSCKASGFNIKDYYIHWVRQAPGQGLEWMGWIDPENGSTIYDQKFQGRVTMTRDTSTSTVYMELSSLRSEDTAVYYCARGYDVDWFVYWGQGTLVTVSS VL: DIQMTQSPSSLSASVGDRVTITCSASSSISYMYWYQQKPGKAPKLLIYRTSSLASGVPSRFSGSGSGTDFTLTISSLQPEDFATYYCQQYHSYPPTFGGGTKVEIK

The next lines start with the binder.

Binder | koff (cynomolgus suPAR) | koff [1]
suPAR_DB03_B04 (scFv, V domains shown, screened as scFv) VH: QVQLVQSGAEVKKPGASVKVSCKASGYTFTGYYMHWVRQAPGQGLEWIGWITPDSGGTVYAQKFQGRVTMTRDTSTSTVYMELSSLRSEDTAVYYCARGYDVDWFVYWGQGTLVTVSS VL: DIQMTQSPSSLSASVGDRVTITCSASSSISYMYWYQQKPGKAPKLLIYRTSNLASGVPSRFSGSGSGTDFTLTISSLQPEDFATYYCQQYHSYPPTFGGGTKVEIK | 4.52e-07 s⁻¹ | 0.00197 s⁻¹
suPAR_DB03_A09 (scFv, V domains shown, screened as scFv) VH: QVQLVQSGAEVKKPGASVKVSCKASGYTFTSHYVHWVRQAPGQGLEWMGWIDHSNGSTIYDQKFQGRVTMTRDTSTSTVYMELSSLRSEDTAVYYCARGYDVDWFVYWGQGTLVTVSS VL: DIQMTQSPSSLSASVGDRVTITCSARQSISYMYWYQQKPGKAPKLLIYRTSNLASGVPSRFSGSGSGTDFTLTISSLQPEDFATYYCQQYHSYPPTFGGGTKVEIK | 0.000254 s⁻¹ | 0.00132 s⁻¹
suPAR_DB03_A11 (scFv, V domains shown, screened as scFv) VH: QVQLVQSGAEVKKPGASVKVSCKASGYTFTSYYMHWVRQAPGQGLEWVGWMDPNSGGTSYAQKFQGRVTMTRDTSTSTVYMELSSLRSEDTAVYYCARGYDVDWFVYWGQGTLVTVSS VL: DIQMTQSPSSLSASVGDRVTITCSARSSVSYMYWYQQKPGKAPKLLIYRTSNLASGVPSRFSGSGSGTDFTLTISSLQPEDFATYYCQQYHSYPPTFGGGTKVEIK | 7.99e-05 s⁻¹ | 0.00181 s⁻¹
suPAR_DB03_B09 (scFv, V domains shown, screened as scFv) VH: QVQLVQSGAEVKKPGASVKVSCKASGYNIKSYYIHWVRQAPGQGLEWMGWIDPEGGSTIYDQKFQGRVTMTRDTSTSTVYMELSSLRSEDTAVYYCARGYDVDWFVYWGQGTLVTVSS VL: DIQMTQSPSSLSASVGDRVTITCSARSSVSYMYWYQQKPGKAPKLLIYRTSNLASGVPSRFSGSGSGTDFTLTISSLQPEDFATYYCQQYHSYPPTFGGGTKVEIK | 0.000126 s⁻¹ | 0.00421 s⁻¹
suPAR_DB03_A05 (scFv, V domains shown, screened as scFv) VH: QVQLVQSGAEVKKPGASVKVSCKASGYTFSSYYMHWVRQAPGQGLEWMGWIDHENGNTIYAQKFQGRVTMTRDTSTSTVYMELSSLRSEDTAVYYCARGYDVDWFVYWGQGTLVTVSS VL: DIQMTQSPSSLSASVGDRVTITCSARSSVSYMYWYQQKPGKAPKLLIYRTSSLASGVPSRFSGSGSGTDFTLTISSLQPEDFATYYCQQYHSYPPTFGGGTKVEIK | 0.000259 s⁻¹ | 0.0026 s⁻¹
suPAR_DB03_B02 (scFv, V domains shown, screened as scFv) VH: QVQLVQSGAEVKKPGASVKVSCKASGDTFTSYYMHWVRQAPGQGLEWMGWIDHENGSTSYDQKFQGRVTMTRDTSTSTVYMELSSLRSEDTAVYYCARGYDVDWFVYWGQGTLVTVSS VL: DIQMTQSPSSLSASVGDRVTITCSARSSVSYMYWYQQKPGKAPKLLIYRTSNLASGVPSRFSGSGSGTDFTLTISSLQPEDFATYYCQQYHSYPPTFGGGTKVEIK | 0.000148 s⁻¹ | 0.0024 s⁻¹
suPAR_DB03_C07 (scFv, V domains shown, screened as scFv) VH: QVQLVQSGAEVKKPGASVKVSCKASGYTFTNYYVHWVRQAPGQGLEWMGWIDHENGSTIYDQKFQGRVTMTRDTSTSTVYMELSSLRSEDTAVYYCARGYDVDWFVYWGQGTLVTVSS VL: DIQMTQSPSSLSASVGDRVTITCSARSSVSYMYWYQQKPGKAPKLLIYRTSNLASGVPSRFSGSGSGTDFTLTISSLQPEDFATYYCQQYHSYPPTFGGGTKVEIK | 5.78e-05 s⁻¹ | 0.00166 s⁻¹
suPAR_DB03_A08 (scFv, V domains shown, screened as scFv) VH: QVQLVQSGAEVKKPGASVKVSCKASGYTFTGYYMHWVRQAPGQGLEWMGWIDHENGSTIYAQKFQGRVTMTRDTSTSTVYMELSSLRSEDTAVYYCARGYDVDWFVYWGQGTLVTVSS VL: DIQMTQSPSSLSASVGDRVTITCSASSSVSYMYWYQQKPGKAPKLLIYRTSNLASGVPSRFSGSGSGTDFTLTISSLQPEDFATYYCQQYHSYPPTFGGGTKVEIK | 0.000269 s⁻¹ | 0.000306 s⁻¹
suPAR_DB03_C06 (scFv, V domains shown, screened as scFv) VH: QVQLVQSGAEVKKPGASVKVSCKASGYTFTDYYVHWVRQAPGQGLEWMGWIDHEGGSTSYDQKFQGRVTMTRDTSTSTVYMELSSLRSEDTAVYYCARGYDVDWFVYWGQGTLVTVSS VL: DIQMTQSPSSLSASVGDRVTITCSASSSVSYMYWYQQKPGKAPKLLIYRTSNLASGVPSRFSGSGSGTDFTLTISSLQPEDFATYYCQQYHSYPPTFGGGTKVEIK | 0.000189 s⁻¹ | 0.00318 s⁻¹
